# US20060029546A1, “Materials and methods for identifying anti-schizophrenic agents” (deCODE Genetics, Inc., priority 2004, published 2006)
# Molecular target: ErbB4 (full-length, expressed in mammalian cells) (human) (UniProt Q15303)
# Experiment: cell-based or functional assay
# Chain of ErbB4 (full-length, expressed in mammalian cells) (human) (Q15303 26-1308 limits assumed): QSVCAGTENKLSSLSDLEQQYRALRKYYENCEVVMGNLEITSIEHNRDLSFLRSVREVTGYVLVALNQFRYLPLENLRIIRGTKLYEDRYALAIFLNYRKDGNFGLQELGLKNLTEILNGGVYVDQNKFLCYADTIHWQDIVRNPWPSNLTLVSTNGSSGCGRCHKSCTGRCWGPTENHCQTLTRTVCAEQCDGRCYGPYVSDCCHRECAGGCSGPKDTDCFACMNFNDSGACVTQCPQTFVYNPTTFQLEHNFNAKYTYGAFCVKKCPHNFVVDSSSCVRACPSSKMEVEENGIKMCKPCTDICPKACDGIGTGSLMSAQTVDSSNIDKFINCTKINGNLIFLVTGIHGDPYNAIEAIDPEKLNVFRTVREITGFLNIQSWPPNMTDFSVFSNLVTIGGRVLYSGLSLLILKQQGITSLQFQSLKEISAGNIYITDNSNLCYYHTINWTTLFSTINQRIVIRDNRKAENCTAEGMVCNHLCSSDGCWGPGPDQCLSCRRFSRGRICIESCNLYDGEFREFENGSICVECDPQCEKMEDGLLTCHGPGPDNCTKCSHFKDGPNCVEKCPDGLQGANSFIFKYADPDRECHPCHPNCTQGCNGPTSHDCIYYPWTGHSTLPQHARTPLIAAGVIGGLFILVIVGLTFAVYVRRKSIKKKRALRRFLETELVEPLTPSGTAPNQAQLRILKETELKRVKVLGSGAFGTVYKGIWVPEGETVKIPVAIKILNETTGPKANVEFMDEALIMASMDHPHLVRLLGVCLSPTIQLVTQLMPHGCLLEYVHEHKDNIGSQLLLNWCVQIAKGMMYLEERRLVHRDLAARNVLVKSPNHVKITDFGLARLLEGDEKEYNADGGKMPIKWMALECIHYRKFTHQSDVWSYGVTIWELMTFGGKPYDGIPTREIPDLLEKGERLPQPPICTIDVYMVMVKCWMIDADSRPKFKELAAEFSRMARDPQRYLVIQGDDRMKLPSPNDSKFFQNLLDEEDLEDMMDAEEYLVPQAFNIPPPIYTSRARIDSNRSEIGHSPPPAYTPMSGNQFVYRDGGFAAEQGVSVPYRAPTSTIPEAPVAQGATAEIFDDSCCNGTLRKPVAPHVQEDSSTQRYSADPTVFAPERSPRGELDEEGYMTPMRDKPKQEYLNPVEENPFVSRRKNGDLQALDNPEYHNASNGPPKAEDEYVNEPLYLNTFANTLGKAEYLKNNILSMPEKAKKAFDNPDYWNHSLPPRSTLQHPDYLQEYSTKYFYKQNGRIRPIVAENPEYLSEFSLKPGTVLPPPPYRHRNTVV
substance,measurement,value
NRG1 (recombinant human HRG-αEGF domain; R&D Systems) (from UniProt Q02297 177-241) (ligand),"NRG1 EC50, luciferase reporter gene under a promoter containing a serum response element (SRE), CHO-K1 cells expressing ErbB4 with or without Fyn",1 nM
